Assays:
Experiment in all cases: cell-based or functional assay
[1] = molecular target: pro-HGF (single-chain hepatocyte growth factor) (UniProt P14210)
[2] = molecular target: Met receptor on A549 lung carcinoma cells (UniProt P08581)
[3] = molecular target: soluble form of hepsin encompassing the entire extracellular domain (Arg45-Leu417) and a C-terminal His8 tag (human) (UniProt P05981)
soluble form of hepsin encompassing the entire extracellular domain (Arg45-Leu417) and a C-terminal His8 tag (human), sequence (P05981 45-162 limits assumed, chain 1 of 2): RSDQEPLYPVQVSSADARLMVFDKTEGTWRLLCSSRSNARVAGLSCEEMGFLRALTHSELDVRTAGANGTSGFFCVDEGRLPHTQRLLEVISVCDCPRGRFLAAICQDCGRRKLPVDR
soluble form of hepsin encompassing the entire extracellular domain (Arg45-Leu417) and a C-terminal His8 tag (human), sequence (P05981 other isoform, or with tags, fused parts or gaps limits assumed, chain 2 of 2): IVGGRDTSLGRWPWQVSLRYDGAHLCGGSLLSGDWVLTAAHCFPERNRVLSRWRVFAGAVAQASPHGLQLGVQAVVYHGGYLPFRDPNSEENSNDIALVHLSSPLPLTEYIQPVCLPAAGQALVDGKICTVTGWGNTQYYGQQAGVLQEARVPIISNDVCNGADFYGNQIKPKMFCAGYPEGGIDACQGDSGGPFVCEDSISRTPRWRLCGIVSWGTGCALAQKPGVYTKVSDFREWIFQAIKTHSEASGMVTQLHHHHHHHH

Met receptor on A549 lung carcinoma cells, sequence (P08581 25-1390 limits assumed): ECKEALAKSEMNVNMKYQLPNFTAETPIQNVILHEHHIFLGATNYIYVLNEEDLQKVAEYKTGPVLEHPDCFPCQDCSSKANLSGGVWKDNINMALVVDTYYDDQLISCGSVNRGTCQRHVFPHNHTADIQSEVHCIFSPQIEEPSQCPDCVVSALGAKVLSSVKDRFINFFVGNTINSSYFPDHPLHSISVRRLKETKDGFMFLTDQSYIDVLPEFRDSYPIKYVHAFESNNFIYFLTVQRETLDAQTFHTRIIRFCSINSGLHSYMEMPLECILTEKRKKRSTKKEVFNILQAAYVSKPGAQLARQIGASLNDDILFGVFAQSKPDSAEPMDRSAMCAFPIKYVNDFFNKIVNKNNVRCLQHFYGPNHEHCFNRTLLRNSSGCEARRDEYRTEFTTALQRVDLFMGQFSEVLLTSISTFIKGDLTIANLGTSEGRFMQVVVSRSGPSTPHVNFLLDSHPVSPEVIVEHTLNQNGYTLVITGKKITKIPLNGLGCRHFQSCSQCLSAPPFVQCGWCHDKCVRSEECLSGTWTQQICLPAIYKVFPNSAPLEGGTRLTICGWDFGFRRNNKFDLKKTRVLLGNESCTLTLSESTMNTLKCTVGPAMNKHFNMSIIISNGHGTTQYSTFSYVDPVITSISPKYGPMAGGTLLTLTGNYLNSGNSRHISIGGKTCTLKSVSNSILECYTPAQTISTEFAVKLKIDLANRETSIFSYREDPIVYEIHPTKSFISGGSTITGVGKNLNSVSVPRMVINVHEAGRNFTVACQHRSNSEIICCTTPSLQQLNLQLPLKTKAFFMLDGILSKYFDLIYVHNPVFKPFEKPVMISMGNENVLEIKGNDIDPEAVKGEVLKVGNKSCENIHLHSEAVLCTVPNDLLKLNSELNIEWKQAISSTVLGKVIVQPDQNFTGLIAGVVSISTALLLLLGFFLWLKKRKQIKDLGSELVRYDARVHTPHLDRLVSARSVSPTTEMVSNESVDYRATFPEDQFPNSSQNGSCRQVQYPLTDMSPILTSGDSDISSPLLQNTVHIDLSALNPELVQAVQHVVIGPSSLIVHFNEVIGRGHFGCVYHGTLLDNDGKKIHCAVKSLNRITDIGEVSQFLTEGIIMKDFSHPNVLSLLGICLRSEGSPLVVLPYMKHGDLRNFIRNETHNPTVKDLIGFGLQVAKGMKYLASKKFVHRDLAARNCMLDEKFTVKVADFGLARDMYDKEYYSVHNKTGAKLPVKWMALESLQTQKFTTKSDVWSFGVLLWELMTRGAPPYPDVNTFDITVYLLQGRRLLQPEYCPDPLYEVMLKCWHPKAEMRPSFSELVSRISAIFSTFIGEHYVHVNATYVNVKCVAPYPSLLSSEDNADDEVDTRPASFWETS
pro-HGF (single-chain hepatocyte growth factor), sequence (P14210 32-728 limits assumed): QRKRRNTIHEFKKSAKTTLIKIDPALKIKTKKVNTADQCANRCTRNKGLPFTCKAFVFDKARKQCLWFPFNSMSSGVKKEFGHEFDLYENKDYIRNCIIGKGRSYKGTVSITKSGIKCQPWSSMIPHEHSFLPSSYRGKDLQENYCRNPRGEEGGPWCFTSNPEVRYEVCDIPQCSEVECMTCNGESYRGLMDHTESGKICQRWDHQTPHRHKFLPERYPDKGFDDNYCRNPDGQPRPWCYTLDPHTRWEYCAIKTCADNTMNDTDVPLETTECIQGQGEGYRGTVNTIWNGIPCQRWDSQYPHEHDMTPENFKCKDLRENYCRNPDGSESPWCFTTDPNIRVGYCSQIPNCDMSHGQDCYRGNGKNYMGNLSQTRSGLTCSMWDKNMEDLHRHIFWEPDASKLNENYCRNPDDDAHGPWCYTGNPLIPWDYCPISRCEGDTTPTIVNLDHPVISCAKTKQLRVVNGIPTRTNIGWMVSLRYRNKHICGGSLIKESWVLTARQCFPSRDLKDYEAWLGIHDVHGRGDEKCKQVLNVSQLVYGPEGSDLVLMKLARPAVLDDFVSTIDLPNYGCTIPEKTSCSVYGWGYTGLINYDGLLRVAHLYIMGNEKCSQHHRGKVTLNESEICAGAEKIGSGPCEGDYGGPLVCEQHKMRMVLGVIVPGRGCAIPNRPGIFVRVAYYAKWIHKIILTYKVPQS

Substance | percent of unlabelled pro-HGF (0.3 mg/ml) converted into HGF by 40 nM enzyme [1] [%] | Met phosphorylation in a kinase receptor assay (KIRA) with A549 cells: concentration of maximal activity [2] [ng/mL] | further results
HGFA (hepatocyte growth factor activator) comprising residues Val373-Arg407 (from UniProt Q04756 373-407) (enzyme) | > 95 | – | –
HGFhepsin (HGF produced by activation of pro-HGF with hepsin) (from UniProt P14210 32-728; P14210 32-728) (ligand) | – | 250 | –
soluble form of HAI-1B (sHAI-1B) comprising the entire extracellular domain (from UniProt O43278 36-465) | – | – | IC50, inhibition of hepsin enzymatic activity towards S2366 (amidolytic assay) [3]: 21.1 nM
soluble form of hepsin encompassing the entire extracellular domain (Arg45-Leu417) and a C-terminal His8 tag (from UniProt P05981 45-162; P05981 163-417) (enzyme) | > 95 | – | –
HGFHGFA (HGF produced by activation of pro-HGF with HGFA) (from UniProt P14210 32-728; P14210 32-728) (ligand) | – | 250 | –
